In publication PMC3811445:

Target: E. coli EF-G (Δ529SNP531) (E. coli) (UniProt P0A6M8)
Assay: ITC; performed as described previously (ref 11); conditions not given here

In the case of FusB (natural protein), the Kd is reported as 5.8 µM.
